Consider seven molecules from paper PMC9445180, “Allosteric inhibition of HTRA1 activity by a conformational lock mechanism to treat age-related macular degeneration” (Nature Communications, 2022).

The stoichiometry N is a count of units in the complex or per binding partner. The Kd is a measure of binding affinity in units of concentration. The low end stands for a tighter complex, the high end for a looser complex.

Data set [1] concerns the target T1, HTRA1^PD/SA (catalytically inactive S328A mutant of the HTRA1 protease domain) (human, UniProt Q92743, S328A).
T1 construct: human HTRA1 protease domain, D161-K379, with S328A; source: E. coli, purified (Ni-NTA, SEC)
The data set can be described thus: SEC; HTRA1 proteins mixed with Fab15H6.v4 (1:2 molar ratio, 30 min on ice); Superdex 200 Increase 3.2/300; 200 mM NaCl, 20 mM HEPES pH 7.5, 0.25% CHAPS; size against protein standards. To be noted: both partners purified. (In general: SEC sorts molecules by how far they enter the pores of the column.)

Data set [2] addresses T2, HTRA1^FL/SA (catalytically inactive S328A mutant of full-length HTRA1) (human, UniProt Q92743, S328A).
T2 construct: human HTRA1, Q23-P480, with S328A; source: Trichoplusia ni cells, purified from the medium (Ni-NTA, SEC)
The description is as above. To be noted: both partners purified.

Data set [3] has as its target T3, HTRA1^PD (human HTRA1 protease domain, D161-K379) (human, UniProt Q92743).
T3 construct: human HTRA1 protease domain, D161-K379, 24 kDa; His6 tag is TEV or thrombin cleavable; captured by it in SPR; also called wildtype HTRA1^PD; active HTRA1^PD; source: E. coli, purified (Ni-NTA, SEC); not shown: His6, N-terminal, kept
The description is as above. To be noted: both partners purified.

Data set [4] deals with T4, HTRA2 LoopA wildtype peptide (Homo sapiens).
T4 construct: LoopA of human HTRA2, residues 168-179; also called LoopA peptide of HTRA2; source: synthetic peptide (Abclonal)
T4 chain: DRHPFLGREVPI
The data set can be described thus: SPR; Fab15H6.v4 (1000 RU) immobilised on a CM5 chip by amine coupling, synthetic LoopA peptides as analytes, single-cycle kinetics, three-fold dilutions from 10 nM (HTRA1 peptides) or 3 μM (HTRA2, HTRA3, HTRA4 peptides); 25 °C, HBS-EP. To be noted: both partners purified. (In general: Surface plasmon resonance follows binding to a sensor surface in real time, without labels.)

The target in data set [5] is T5, HTRA1 LoopA wildtype peptide (Homo sapiens).
T5 construct: LoopA of human HTRA1, residues 190-201; also called HTRA1-LoopA peptide; LoopA peptide; source: synthetic peptide (Abclonal for SPR; NeoBiolab for the crystal)
T5 chain: RKLPFSKREVPV
Described as above. To be noted: both partners purified.

The target in data set [6] is T6, HTRA3 LoopA wildtype peptide (Homo sapiens).
T6 construct: LoopA of human HTRA3, residues 161-172; also called LoopA peptide of HTRA3; source: synthetic peptide (Abclonal)
T6 chain: LRHPLFGRNVPL
The data set is described as above. To be noted: both partners purified.

Data set [7] addresses T7, HTRA4 LoopA wildtype peptide (Homo sapiens).
T7 construct: LoopA of human HTRA4, residues 188-199; also called LoopA peptide of HTRA4; source: synthetic peptide (Abclonal)
T7 chain: GRLLHGSRLVPV
The description is as above. To be noted: both partners purified.

Data set [8] addresses T8, HTRA2^PD/PDZ (HTRA2 protease/PDZ domain, A134-E458) (human, UniProt O43464).
T8 construct: human HTRA2 protease and PDZ domains, A134-E458; also called wildtype HTRA2; source: E. coli, purified (Ni-NTA, SEC); not shown: His6, N-terminal, kept
In words: SPR; His6-tagged HTRA proteins (about 200 RU) captured with the His-capture kit on a CM5 chip, Fab15H6.v4 as analyte, single-cycle kinetics, three-fold dilutions from 1 nM or 1 μM; absence of binding verified with 3 μM Fab; Biacore S200, 25 °C, HBS-EP; 1:1 Langmuir model. To be noted: both partners purified.

Data set [9] addresses T9, HTRA3^PD/PDZ (HTRA3 protease/PDZ domain, L130-M453) (Homo sapiens, UniProt P83110).
T9 construct: human HTRA3 protease and PDZ domains, L130-M453; also called wildtype HTRA3; source: E. coli, purified (Ni-NTA, SEC); not shown: His6, N-terminal, kept
Described as above. To be noted: both partners purified.

Data set [10] has as its target T3, HTRA1^PD (human HTRA1 protease domain, …). Described as above. To be noted: both partners purified.
Data set [11] shares this target. The data set can be described thus: SPR; wildtype His6-tagged HTRA1^PD (about 200 RU) captured with the His-capture kit on a CM5 chip; scFv15H6.v4, Fab15H6.v4 and its mutants as analytes, single-cycle kinetics, three-fold dilutions from 10 nM or 1 μM; absence of binding confirmed up to 3 μM; 25 °C, HBS-EP. To be noted: both partners purified.
Data set [12] deals with the molecule itself. The data set can be described thus: SEC; HTRA proteins and their LoopA deletion mutants alone; Superdex 200 Increase 3.2/300; 200 mM NaCl, 20 mM HEPES pH 7.5, 0.25% CHAPS; size against gel filtration standard.

T9 sequence (P83110 130-453): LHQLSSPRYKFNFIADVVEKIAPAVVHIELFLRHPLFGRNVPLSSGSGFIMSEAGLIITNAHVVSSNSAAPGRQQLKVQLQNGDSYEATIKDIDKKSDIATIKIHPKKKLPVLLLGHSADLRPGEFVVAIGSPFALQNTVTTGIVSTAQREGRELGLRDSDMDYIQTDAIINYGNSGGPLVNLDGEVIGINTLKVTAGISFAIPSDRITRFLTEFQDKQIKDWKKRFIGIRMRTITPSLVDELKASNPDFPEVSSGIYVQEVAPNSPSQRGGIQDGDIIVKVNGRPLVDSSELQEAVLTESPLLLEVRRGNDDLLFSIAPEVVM

B1: Fab15H6.v4 (Fab, V domains shown)
VH: EVQLVQSGAEVKKPGASVKVSCKASGYKFTDSEMHWVRQAPGQGLEWIGGVDPETEGAAYNQKFKGRATITRDTSTSTAYLELSSLRSEDTAVYYCTRGYDYDYALDYWGQGTLVTVSS
VL: DIQMTQSPSSLSASVGDRVTITCRASSSVEFIHWYQQKPGKAPKPLISATSNLASGVPSRFSGSGSGTDFTLTISSLQPEDFATYYCQQWSSAPWTFGQGTKVEIK
notes: light chain of Fab15H6.v4; also called the Fab; source: expressed in Complete CRAP media with carbenicillin, purified (Protein G, SP Sepharose)
B1: the “stoichiometry N” value in data set [1], in data set [2] and in [3] was 3 Fab per HTRA1 trimer in each case. The binding result in [4] is “no binding (tested: 3 μM)”; in data set [6] it was “no binding (tested: 3 μM)”; in [7], “no binding (tested: 3 μM)”; in data set [8] it was “no binding (tested: 3 μM Fab)”; in data set [9], “no binding (tested: 3 μM Fab)”. Besides, the dissociation constant Kd in data set [5] stood at 0.77 nM; in data set [10], 0.12 nM.

B2: Fab15H6.v4 with all eight key paratope residues mutated to alanine (Fab, V domains shown)
VH: EVQLVQSGAEVKKPGASVKVSCKASGYKFAAAEMHWVRQAPGQGLEWIGGVAPETEGAAYNQKFKGRATITRDTSTSTAYLELSSLRSEDAAVYYCTRGAAADYALDYWGQGTLVTVSS
VL: DIQMTQSPSSLSASVGDRVTITCRASSSVEFIHWYQQKPGKAPKPLISATSNLASGVPSRFSGSGSGTDFTLTISSLQPEDFATYYCQQWSSAPWTFGQGTKVEIK
notes: as the heavy chain of m1, with eight paratope residues of the three CDR loops changed to alanine; as the light chain of m1
Take B2: in data set [11], the binding result was “no binding (tested: 3 μM)”.

B3: Fab15H6.v4 Y100A (Fab, V domains shown)
VH: EVQLVQSGAEVKKPGASVKVSCKASGYKFTDSEMHWVRQAPGQGLEWIGGVDPETEGAAYNQKFKGRATITRDTSTSTAYLELSSLRSEDTAVYYCTRGADYDYALDYWGQGTLVTVSS
VL: DIQMTQSPSSLSASVGDRVTITCRASSSVEFIHWYQQKPGKAPKPLISATSNLASGVPSRFSGSGSGTDFTLTISSLQPEDFATYYCQQWSSAPWTFGQGTKVEIK
notes: as the heavy chain of m1, with Y100A; as the light chain of m1
Regarding B3, the “fold affinity loss against Fab15H6.v4” value in data set [11] was determined as 200 fold.

B4: Fab15H6.v4 D52A (Fab, V domains shown)
VH: EVQLVQSGAEVKKPGASVKVSCKASGYKFTDSEMHWVRQAPGQGLEWIGGVAPETEGAAYNQKFKGRATITRDTSTSTAYLELSSLRSEDTAVYYCTRGYDYDYALDYWGQGTLVTVSS
VL: DIQMTQSPSSLSASVGDRVTITCRASSSVEFIHWYQQKPGKAPKPLISATSNLASGVPSRFSGSGSGTDFTLTISSLQPEDFATYYCQQWSSAPWTFGQGTKVEIK
notes: as the heavy chain of m1, with D52A; as the light chain of m1
Take B4: the “fold affinity loss against Fab15H6.v4” value in [11] worked out at 2000 fold.

B5: scFv15H6.v4 (single chain Fv version of Fab15H6.v4) (scFv, V domains shown)
VH: EVQLVQSGAEVKKPGASVKVSCKASGYKFTDSEMHWVRQAPGQGLEWIGGVDPETEGAAYNQKFKGRATITRDTSTSTAYLELSSLRSEDTAVYYCTRGYDYDYALDYWGQGTLVTVSS
VL: DIQMTQSPSSLSASVGDRVTITCRASSSVEFIHWYQQKPGKAPKPLISATSNLASGVPSRFSGSGSGTDFTLTISSLQPEDFATYYCQQWSSAPWTFGQGTKVEIK
notes: variable domain of the light chain of m1, D1-K106; (GGGGS)4 linker; variable domain of the heavy chain of m1, E1-S119
Turning to B5, the Kd in data set [11] amounted to 9.4 nM. In other words, the single-digit nanomolar range.

B6: HTRA2^PD/PDZ (HTRA2 protease/PDZ domain, A134-E458) (domain or fragment, human, UniProt O43464 134-458, looked up)
chain: AVPSPPPASPRSQYNFIADVVEKTAPAVVYIEILDRHPFLGREVPISNGSGFVVAADGLIVTNAHVVADRRRVRVRLLSGDTYEAVVTAVDPVADIATLRIQTKEPLPTLPLGRSADVRQGEFVVAMGSPFALQNTITSGIVSSAQRPARDLGLPQTNVEYIQTDAAIDFGNSGGPLVNLDGEVIGVNTMKVTAGISFAIPSDRLREFLHRGEKKNSSSGISGSQRRYIGVMMLTLSPSILAELQLREPSFPDVQHGVLIHKVILGSPAHRAGLRPGDVILAIGEQMVQNAEDVYEAVRTQSQLAVQIRRGRETLTLYVTPEVTE
notes: human HTRA2 protease and PDZ domains, A134-E458; also called wildtype HTRA2; source: E. coli, purified (Ni-NTA, SEC); not shown: His6, N-terminal, kept
In the case of B6, the “stoichiometry N” value in data set [12] amounted to 3.

B7: HTRA1^PD-ΔLoopA (domain or fragment)
chain: not shown
notes: human HTRA1 protease domain, D161-K379, entire LoopA replaced with the beta hairpin motif NG; also called HTRA1-ΔLoopA; HTRA1^PD-ΔLoop mutant; source: E. coli, purified (Ni-NTA, SEC); not shown: His6, N-terminal, kept
On to B7, for which the “stoichiometry N” value in data set [12] is 3.
